From patent US20240301086A1 (APTEVO RESEARCH AND DEVELOPMENT, published 2024)

Assays:
mIgG Fc-cyno PSMA ECD = biological target: T1, mIgG Fc-cyno PSMA ECD (cynomolgus monkey); assay: SPR (Biacore T200), bispecific amine-coupled, mFc-PSMA dimer 1-81 nM as analyte, 1:1 fit
T1 construct: Called PSMA dimer in the SPR method; also called mFc-Cyno PSMA ECD; murine Fc-tagged cyno PSMA ECD
T1 chain: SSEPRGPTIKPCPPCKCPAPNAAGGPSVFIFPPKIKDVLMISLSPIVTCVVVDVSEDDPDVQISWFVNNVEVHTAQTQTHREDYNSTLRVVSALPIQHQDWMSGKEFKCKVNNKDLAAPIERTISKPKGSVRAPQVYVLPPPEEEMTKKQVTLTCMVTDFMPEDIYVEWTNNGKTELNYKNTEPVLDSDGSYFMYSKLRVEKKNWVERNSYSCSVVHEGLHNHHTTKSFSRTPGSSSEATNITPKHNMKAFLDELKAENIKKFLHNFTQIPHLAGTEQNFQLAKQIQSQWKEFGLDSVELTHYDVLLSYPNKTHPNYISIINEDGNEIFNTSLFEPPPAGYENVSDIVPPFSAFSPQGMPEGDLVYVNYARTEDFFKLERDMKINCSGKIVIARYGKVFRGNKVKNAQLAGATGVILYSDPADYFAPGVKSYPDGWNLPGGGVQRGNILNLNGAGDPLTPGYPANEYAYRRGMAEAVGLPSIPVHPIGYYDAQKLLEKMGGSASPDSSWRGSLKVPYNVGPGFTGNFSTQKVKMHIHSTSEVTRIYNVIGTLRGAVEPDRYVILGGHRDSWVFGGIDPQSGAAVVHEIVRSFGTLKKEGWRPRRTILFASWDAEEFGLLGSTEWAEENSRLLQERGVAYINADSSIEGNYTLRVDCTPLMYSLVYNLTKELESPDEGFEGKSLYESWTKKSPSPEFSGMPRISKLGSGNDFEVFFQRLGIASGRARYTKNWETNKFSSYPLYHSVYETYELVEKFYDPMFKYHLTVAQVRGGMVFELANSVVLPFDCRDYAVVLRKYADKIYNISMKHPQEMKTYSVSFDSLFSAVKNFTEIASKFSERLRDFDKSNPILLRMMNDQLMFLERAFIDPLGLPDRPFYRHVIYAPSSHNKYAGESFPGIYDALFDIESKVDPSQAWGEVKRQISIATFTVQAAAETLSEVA
Experimental: SPR studies were performed on a subset of bispecific constructs binding to Human and cynomolgus primate PSMA ectodomain (ECD) fused to the c-terminus of a murine IgG1 Fc region. These experiments were conducted at 25° C. in dPBS (Gibco, 14040-133) with 0.2% BSA buffer on a Biacore T200 system. Bispecific constructs were immobilized at a density of ˜2,000-4,000 response units (RU) onto individual flow cells of a CM5 research-grade sensor chip (GE) by standard amine coupling chemistry, leaving one flow cell surface unmodified as the reference. Using a multi-cycle kinetics mode, a buffer blank and […] different concentrations of the PSMA dimer ranging from 1 nM to 81 nM in dPBS with 0.2% BSA were sequentially injected through each flow cell at 30 μL/min for 300 seconds followed by a 600 second dissociation phase. Regeneration was achieved by injection of 10 mM glycine pH 2.0 at a flow rate of 30 μL/min for 40 seconds followed by dPBS with 0.2% BSA buffer stabilization for 1 min.
Sensorgrams obtained from kinetic SPR measurements were analyzed by the double subtraction method. The signal from the reference flow cell was subtracted from the analyte binding response obtained from flow cells with captured ligands. The buffer blank response was then subtracted from analyte binding responses and the final double-referenced data were analyzed with Biacore T200 Evaluation software (2.0, GE), globally fitting data to derive kinetic parameters. All sensorgrams were fitted using a simple one-to-one binding model.

[1] = biological target: T2, Human PSMA ECD-AFH (TSC033), recombinant dimeric PSMA ECD (human, UniProt Q04609 44-750); assay: SPR (Biacore T200), human PSMA dimer ECD 10X His (TSC033), 1:1 fit
T2 construct: SEC-purified dimer; also called HuPSMA-AFH; Avi-His-Human PSMA ECD
T2 sequence (Q04609 other isoform, or with tags, fused parts or gaps): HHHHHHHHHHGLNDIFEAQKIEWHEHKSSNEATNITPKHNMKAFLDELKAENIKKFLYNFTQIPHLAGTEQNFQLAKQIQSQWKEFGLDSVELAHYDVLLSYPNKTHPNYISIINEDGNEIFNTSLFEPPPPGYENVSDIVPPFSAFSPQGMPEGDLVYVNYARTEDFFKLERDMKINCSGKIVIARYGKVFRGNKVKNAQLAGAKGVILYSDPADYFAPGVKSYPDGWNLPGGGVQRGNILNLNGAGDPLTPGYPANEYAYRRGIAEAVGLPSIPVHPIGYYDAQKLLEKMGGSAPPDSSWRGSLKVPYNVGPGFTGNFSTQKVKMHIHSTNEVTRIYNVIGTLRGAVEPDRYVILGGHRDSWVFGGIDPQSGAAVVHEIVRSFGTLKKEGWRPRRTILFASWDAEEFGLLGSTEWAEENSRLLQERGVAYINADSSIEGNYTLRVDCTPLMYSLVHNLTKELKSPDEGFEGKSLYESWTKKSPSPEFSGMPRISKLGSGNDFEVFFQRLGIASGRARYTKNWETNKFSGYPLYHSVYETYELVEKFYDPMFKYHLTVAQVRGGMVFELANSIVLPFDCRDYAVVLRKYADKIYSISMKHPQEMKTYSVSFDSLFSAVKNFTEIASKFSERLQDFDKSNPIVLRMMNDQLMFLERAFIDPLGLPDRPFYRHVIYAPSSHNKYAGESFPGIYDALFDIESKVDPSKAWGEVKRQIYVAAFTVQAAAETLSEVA

B1: PSMA01107 Anti-PSMA scFv x Fc x linker x Anti CD3 scFv; Anti PSMA scFv x Fc (bispecific antibody)
chain 1: QVQLVQSGAEVKKPGASVKVSCKASGYTFTDYYMHWVRQAPGQGLEWMGYFNPYNDYTRYAQKFQGRVTMTRDTSTSTVYMELSSLRSEDTAVYYCARSDGYYDAMDYWGQGTTVTVSSGGGGSGGGGSGGGGSGGGGSDIQMTQSPSSLSASVGDRVTITCRASKSISKYLAWYQQKPGKAPKLLIHSGSSLESGVPSRFSGSGSGTEFTLTISSLQPDDFATYYCQQHIEYPWTFGQGTKVEIKEPKSSDKTHTCPPCPAPPAAAPSVFLFPPKPKDTLMISRTPEVTCVVVDVSHEDPEVKFNWYVDGVEVHNAKTKPREEQYNSTYRVVSVLTVLHQDWLNGKEYKCAVSNKALPAPIEKTISKAKGQPREPQVYTLPPSRDELTKNQVSLWCLVKGFYPSDIAVEWESNGQPENNYKTTPPVLDSDGSFFLYSKLTVDKSRWQQGNVFSCSVMHEALHNHYTQKSLSLSPGGGGSPSQVQLVQSGAEVKKPGASVKVSCKASGYTFTRSTMHWVRQAPGQGLEWIGYINPSSAYTNYAQKFQGRVTLTADKSTSTAYMELSSLRSEDTAVYYCASPQVHYDYNGFPYWGQGTLVTVSSGGGGSGGGGSGGGGSGGGGSDIQMTQSPSSLSASVGDRVTITCRASSSVSYMNWYQQKPGKAPKRWIYDSSKLASGVPSRFSGSGSGTDFTLTISSLQPEDFATYYCQQWSRNPPTFGQGTKVEIKRS
chain 2: QVQLVQSGAEVKKPGASVKVSCKASGYTFTDYYMHWVRQAPGQGLEWMGYFNPYNDYTRYAQKFQGRVTMTRDTSTSTVYMELSSLRSEDTAVYYCARSDGYYDAMDYWGQGTTVTVSSGGGGSGGGGSGGGGSGGGGSDIQMTQSPSSLSASVGDRVTITCRASKSISKYLAWYQQKPGKAPKLLIHSGSSLESGVPSRFSGSGSGTEFTLTISSLQPDDFATYYCQQHIEYPWTFGQGTKVEIKEPKSSDKTHTCPPCPAPPAAAPSVFLFPPKPKDTLMISRTPEVTCVVVDVSHEDPEVKFNWYVDGVEVHNAKTKPREEQYNSTYRVVSVLTVLHQDWLNGKEYKCAVSNKALPAPIEKTISKAKGQPREPQVYTLPPSRDELTKNQVSLSCAVKGFYPSDIAVEWESNGQPENNYKTTPPVLDSDGSFFLVSKLTVDKSRWQQGNVFSCSVMHEALHNHYTQKSLSLSPG
notes: Heterodimer, bivalent for PSMA and monovalent for CD3 (VH-VL scFv at the C-terminus); also called PSMA1107
**Q.** How did the Kd (mIgG Fc-cyno PSMA ECD) turn out when B1 was run?
**A.** 4.4 nM

**Q.** What about the Kd [1] of the same binder?
**A.** 2.6 nM
